Measurements: patent publication US20250003966

Tested on: substrate protein (Seq Id no. 1) (URSCREENSARS-COV-2)

With trypsin the “cleavage bands on 15% SDS-PAGE (Sypro Ruby stain)” value was “We could clearly see the cleavage bands of expected molecular weight after gel staining”.
